US20150023988A1
“And” between values parts separate entries of the source, which are not always exact repeats. Equal values may be shown once. Read-outs that look alike come from different tables or passages of the source.

Experiments:
[1] = molecular target: human voltage-gated sodium channel Nav1.4 (human) (UniProt P35499); assay: cell-based or functional assay
[2] = molecular target: human voltage-gated sodium channel Nav1.5 (human) (UniProt Q14524); assay: cell-based or functional assay
[3] = molecular target: human voltage-gated sodium channel Nav1.7 (human) (UniProt Q15858); assay: cell-based or functional assay
[4] = molecular target: human voltage-gated sodium channel Nav1.4 (human) (UniProt P35499); assay: cell-based or functional assay; remark: listed apart in the source
[5] = molecular target: human voltage-gated sodium channel Nav1.5 (human) (UniProt Q14524); assay: cell-based or functional assay; remark: listed apart in the source
[6] = molecular target: human voltage-gated sodium channel Nav1.3 (human) (UniProt Q9NY46); assay: cell-based or functional assay
[7] = molecular target: human voltage-gated sodium channel Nav1.7 (human) (UniProt Q15858); assay: cell-based or functional assay; remark: listed apart in the source
[8] = molecular target: human voltage-gated sodium channel Nav1.3 (human) (UniProt Q9NY46); assay: cell-based or functional assay; remark: listed apart in the source
[9] = molecular target: TTX-sensitive Nav channels in mouse DRG neuron; assay: cell-based or functional assay
[10] = molecular target: TTX-resistant Nav channels in mouse DRG neurons; assay: cell-based or functional assay
[11] = molecular target: TTX-sensitive Nav channels in mouse DRG neurons; assay: cell-based or functional assay
[12] = molecular target: human voltage-gated sodium channel Nav1.8 (human) (UniProt Q9Y5Y9); assay: cell-based or functional assay
[13] = molecular target: human voltage-gated sodium channel Nav1.8 (human), Q9Y5Y9; details: chains peptide; modification not given

human voltage-gated sodium channel Nav1.5 (human), sequence (Q14524 whole entry): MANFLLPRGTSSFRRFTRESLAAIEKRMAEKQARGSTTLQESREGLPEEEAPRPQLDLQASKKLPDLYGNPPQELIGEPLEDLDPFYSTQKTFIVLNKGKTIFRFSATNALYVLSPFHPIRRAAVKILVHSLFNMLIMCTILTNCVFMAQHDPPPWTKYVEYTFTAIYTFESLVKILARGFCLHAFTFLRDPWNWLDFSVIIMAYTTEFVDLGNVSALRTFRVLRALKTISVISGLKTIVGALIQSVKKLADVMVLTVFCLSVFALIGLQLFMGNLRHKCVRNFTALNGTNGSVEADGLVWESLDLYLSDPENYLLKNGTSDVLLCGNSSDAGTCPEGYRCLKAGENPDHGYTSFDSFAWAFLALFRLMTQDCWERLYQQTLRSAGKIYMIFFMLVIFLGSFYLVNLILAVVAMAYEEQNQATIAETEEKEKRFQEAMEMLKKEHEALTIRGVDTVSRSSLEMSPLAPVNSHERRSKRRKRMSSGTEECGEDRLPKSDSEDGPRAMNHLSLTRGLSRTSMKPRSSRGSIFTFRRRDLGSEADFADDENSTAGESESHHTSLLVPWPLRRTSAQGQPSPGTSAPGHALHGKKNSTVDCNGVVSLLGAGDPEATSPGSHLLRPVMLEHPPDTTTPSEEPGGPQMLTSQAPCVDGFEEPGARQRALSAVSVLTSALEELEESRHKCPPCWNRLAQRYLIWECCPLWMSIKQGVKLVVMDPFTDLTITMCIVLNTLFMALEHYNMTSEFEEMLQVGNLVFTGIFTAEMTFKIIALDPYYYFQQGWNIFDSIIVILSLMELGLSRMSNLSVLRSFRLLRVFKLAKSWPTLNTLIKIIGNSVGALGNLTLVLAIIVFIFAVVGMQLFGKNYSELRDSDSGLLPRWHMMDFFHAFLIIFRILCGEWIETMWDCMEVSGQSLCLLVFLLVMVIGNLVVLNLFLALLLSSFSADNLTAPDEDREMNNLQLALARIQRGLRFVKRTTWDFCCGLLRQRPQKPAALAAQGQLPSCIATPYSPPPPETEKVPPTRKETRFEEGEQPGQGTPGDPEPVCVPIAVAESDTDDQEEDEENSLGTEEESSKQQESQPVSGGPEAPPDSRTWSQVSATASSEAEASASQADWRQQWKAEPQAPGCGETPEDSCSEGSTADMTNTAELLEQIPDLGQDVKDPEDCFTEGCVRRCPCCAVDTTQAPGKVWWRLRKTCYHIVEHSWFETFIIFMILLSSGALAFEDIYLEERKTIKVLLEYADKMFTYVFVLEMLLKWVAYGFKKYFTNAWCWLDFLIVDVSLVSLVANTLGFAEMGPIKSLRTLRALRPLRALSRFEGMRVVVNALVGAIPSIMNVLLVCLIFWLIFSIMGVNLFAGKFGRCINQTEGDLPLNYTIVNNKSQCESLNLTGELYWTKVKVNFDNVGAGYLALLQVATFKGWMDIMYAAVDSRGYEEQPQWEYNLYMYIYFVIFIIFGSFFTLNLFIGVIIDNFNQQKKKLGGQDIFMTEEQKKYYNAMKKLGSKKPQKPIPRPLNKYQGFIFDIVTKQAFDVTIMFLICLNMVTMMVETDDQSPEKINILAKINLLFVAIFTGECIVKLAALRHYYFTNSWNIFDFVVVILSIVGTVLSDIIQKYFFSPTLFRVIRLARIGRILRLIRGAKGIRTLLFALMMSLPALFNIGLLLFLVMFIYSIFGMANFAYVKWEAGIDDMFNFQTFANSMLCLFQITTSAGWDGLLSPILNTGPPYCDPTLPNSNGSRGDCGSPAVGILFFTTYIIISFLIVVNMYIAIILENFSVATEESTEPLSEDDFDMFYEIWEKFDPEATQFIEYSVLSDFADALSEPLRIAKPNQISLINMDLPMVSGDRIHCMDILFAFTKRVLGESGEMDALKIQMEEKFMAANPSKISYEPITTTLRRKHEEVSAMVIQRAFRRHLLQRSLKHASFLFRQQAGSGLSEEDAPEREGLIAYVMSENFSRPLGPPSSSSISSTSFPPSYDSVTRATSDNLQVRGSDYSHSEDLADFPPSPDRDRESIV
human voltage-gated sodium channel Nav1.7 (human), sequence (Q15858 whole entry): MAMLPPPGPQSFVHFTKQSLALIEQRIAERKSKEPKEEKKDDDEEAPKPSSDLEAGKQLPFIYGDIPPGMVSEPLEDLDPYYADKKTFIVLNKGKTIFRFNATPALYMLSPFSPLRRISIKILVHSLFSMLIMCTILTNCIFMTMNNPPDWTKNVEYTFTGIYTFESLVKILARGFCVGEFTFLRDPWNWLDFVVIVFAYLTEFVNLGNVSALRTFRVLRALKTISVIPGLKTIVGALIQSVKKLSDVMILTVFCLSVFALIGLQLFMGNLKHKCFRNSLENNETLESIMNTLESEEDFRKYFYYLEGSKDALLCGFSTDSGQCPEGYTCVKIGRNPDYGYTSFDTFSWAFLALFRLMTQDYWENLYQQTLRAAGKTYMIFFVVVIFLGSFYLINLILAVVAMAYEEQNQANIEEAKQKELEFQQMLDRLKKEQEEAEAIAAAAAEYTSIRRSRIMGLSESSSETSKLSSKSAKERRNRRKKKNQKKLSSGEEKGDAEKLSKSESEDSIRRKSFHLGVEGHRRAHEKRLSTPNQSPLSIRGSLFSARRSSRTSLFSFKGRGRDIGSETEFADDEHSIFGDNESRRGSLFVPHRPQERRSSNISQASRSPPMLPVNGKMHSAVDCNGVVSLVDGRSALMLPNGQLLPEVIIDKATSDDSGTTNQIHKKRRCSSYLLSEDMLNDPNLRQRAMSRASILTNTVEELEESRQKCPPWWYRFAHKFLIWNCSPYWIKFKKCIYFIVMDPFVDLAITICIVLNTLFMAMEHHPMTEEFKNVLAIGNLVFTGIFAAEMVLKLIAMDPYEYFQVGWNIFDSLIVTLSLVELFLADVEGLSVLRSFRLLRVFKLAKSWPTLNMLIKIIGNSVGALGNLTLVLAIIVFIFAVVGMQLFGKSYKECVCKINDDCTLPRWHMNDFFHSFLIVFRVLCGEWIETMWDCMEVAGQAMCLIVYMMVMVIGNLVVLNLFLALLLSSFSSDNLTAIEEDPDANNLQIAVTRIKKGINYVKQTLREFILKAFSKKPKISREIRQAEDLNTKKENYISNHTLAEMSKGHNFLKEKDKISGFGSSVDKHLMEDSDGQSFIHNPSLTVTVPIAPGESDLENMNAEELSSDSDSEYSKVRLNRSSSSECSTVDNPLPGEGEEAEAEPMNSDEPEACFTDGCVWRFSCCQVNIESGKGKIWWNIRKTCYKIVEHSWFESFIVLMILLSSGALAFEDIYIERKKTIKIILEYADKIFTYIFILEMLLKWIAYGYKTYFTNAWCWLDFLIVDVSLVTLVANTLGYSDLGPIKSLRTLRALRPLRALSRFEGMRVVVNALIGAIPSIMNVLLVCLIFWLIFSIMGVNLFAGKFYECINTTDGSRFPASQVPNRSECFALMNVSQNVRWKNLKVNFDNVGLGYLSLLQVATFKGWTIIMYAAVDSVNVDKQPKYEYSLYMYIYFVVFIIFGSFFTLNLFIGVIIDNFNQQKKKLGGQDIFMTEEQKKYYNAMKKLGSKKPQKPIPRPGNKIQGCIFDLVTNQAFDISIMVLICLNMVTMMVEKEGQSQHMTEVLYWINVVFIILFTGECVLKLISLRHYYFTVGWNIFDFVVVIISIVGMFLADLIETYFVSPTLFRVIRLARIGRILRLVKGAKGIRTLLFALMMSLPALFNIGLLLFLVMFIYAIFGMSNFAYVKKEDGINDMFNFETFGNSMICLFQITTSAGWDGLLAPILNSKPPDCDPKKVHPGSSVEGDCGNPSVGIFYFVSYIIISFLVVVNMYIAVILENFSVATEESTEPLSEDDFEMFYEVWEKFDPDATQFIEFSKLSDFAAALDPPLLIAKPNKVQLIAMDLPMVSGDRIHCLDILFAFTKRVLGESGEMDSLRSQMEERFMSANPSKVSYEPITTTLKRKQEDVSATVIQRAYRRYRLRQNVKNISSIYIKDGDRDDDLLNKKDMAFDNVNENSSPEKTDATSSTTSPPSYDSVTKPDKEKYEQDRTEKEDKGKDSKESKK

Molecule: [1-Nal7]JzTx-V(1-29) (peptide)
- PX hNav1.4 Tonic IC50 [1]: 0.9 nM
- PX hNav1.5 Tonic IC50 [2]: 1.42 µM
- PX hNav1.7 Tonic IC50 [3]: 0.4 nM

Molecule: [Nle6]JzTx-V(1-29) (peptide)
- PX hNav1.7 Tonic IC50 [3]: 0.586 nM
- IC50 (IonWorks Quattro) [4]: > 5 µM
- IC50 (IonWorks Quattro) [5]: > 5 µM
- IC50 (IonWorks Quattro) [6]: > 5 µM
- IC50 (IonWorks Quattro) [7]: > 5 µM

Molecule: JzTx-45 (peptide)
- PX hNav1.4 Tonic IC50 [1]: 321 nM
- PX hNav1.5 Tonic IC50 [2]: 7.46 µM
- PX hNav1.7 Tonic IC50 [3]: 122 nM

Molecule: [Cpa20]JzTx-V(1-29) (peptide)
- IC50 (IonWorks Quattro) [1]: > 5 µM
- Nav1.4/Nav1.7 (ratio of IC50s) [1]: 24
- IC50 (IonWorks Quattro) [2]: 14.2 µM
- IC50 (IonWorks Quattro) [8]: > 5 µM
- IC50 (IonWorks Quattro) [3]: 0.21 µM

Molecule: GpTx-1 (peptide)
- Nav1.7 whole cell patch clamp [WCPC] IC50 [3]: 3 nM

Molecule: CyA-[Nle6,Lys(Pra)14,Glu28]JzTx-V(1-29) (peptide)
- fold loss of potency against JzTx-V on TTX-sensitive current, mouse DRG neurons [9]: 3 fold

Molecule: Atz(NPEG10)-[Nle6]JzTx-V(1-29) (peptide)
- Nav1.4/Nav1.7 [1]: 1 fold
- PX hNav1.4 Tonic IC50 [1]: 8 nM
- Nav1.5/Nav1.7 [2]: 629 fold
- PX hNav1.5 Tonic IC50 [2]: 3.77 µM
- PX hNav1.7 Tonic IC50 [3]: 6 nM

Molecule: Bis-{Atz(PEG23*)-[Nle6]JzTx-V(1-29)}-5-((2-(benzylthio)acetamido)methyl)isophthalamide (peptide)
- Nav1.4/Nav1.7 [1]: 5 fold and 3 fold
- PX hNav1.5 Tonic IC50 [2]: 0.72 µM and 1.18 µM

Molecule: Atz(PEG11-benzylthioacetamide)-[Nle6]JzTx-V(1-29) (peptide)
- Nav1.4/Nav1.7 [1]: 9 fold
- PX hNav1.4 Tonic IC50 [1]: 13 nM
- Nav1.5/Nav1.7 [2]: 1420 fold
- PX hNav1.5 Tonic IC50 [2]: 1.98 µM
- PX hNav1.7 Tonic IC50 [3]: 1.4 nM

Molecule: [Abu20]JzTx-V(1-29) (peptide)
- IC50 (IonWorks Quattro) [1]: 0.9 µM
- Nav1.4/Nav1.7 (ratio of IC50s) [1]: 19
- IC50 (IonWorks Quattro) [2]: 10.6 µM
- IC50 (IonWorks Quattro) [8]: 0.97 µM
- IC50 (IonWorks Quattro) [3]: 0.05 µM

Molecule: [Cit20]JzTx-V(1-29) (peptide)
- IC50 (IonWorks Quattro) [1]: 0.5 µM
- Nav1.4/Nav1.7 (ratio of IC50s) [1]: 15
- IC50 (IonWorks Quattro) [2]: 6.8 µM
- IC50 (IonWorks Quattro) [8]: 0.35 µM
- IC50 (IonWorks Quattro) [3]: 0.04 µM

Molecule: Pra-[Nle6]JzTx-V(1-29) (peptide)
- fold improvement in hNav1.7 potency over wild type JzTx-V, WCPC [3]: 190 fold
- fold potency against hNav1.7 over wild type JzTx-V(1-29), WCPC [3]: 200 fold
- fold potency over JzTx-V on TTX-sensitive current, mouse DRG neurons [9]: 3 fold

Molecule: JzTx-V(1-29) (peptide)
- PX hNav1.4 Tonic IC50 [1]: 3 nM and 2 nM
- average IC50 against hNav1.4, PX assay format [1]: 2 nM
- 1.x/1.7, fully non-inactivated [2]: 6230 fold
- 1.x/1.7, partially inactivated [2]: 2640 fold
- IC50 (IonWorks Quattro) [2]: 7.2 µM
- Mean IC50, fully non-inactivated (WCPC) [2]: 882 nM
- Mean IC50, partially inactivated (WCPC) [2]: 426 nM
- PX hNav1.5 Tonic IC50 [2]: 2.21 µM and 3.25 µM and 1.6 µM
- Mean IC50, fully non-inactivated (WCPC) [10]: > 1000 nM
- Mean IC50, partially inactivated (WCPC) [10]: > 1000 nM
- 1.x/1.7, fully non-inactivated [11]: 530 fold
- 1.x/1.7, partially inactivated [11]: 111 fold
- Mean IC50, fully non-inactivated (WCPC) [11]: 75 nM
- Mean IC50, partially inactivated (WCPC) [11]: 18 nM
- IC50 (IonWorks Quattro) [3]: 0.02 µM
- Mean IC50, fully non-inactivated (WCPC) [3]: 0.141 nM
- Mean IC50, partially inactivated (WCPC) [3]: 0.162 nM
- 1.x/1.7, fully non-inactivated [12]: 5720 fold
- 1.x/1.7, partially inactivated [12]: 3280 fold
- Mean IC50, fully non-inactivated (WCPC) [12]: 810 nM
- Mean IC50, partially inactivated (WCPC) [12]: 530 nM
- IC50 (IonWorks Quattro) [4]: 0.2 µM
- IC50 (IonWorks Quattro) [5]: > 7 µM
- IC50 (IonWorks Quattro) [7]: 0.04 µM

Molecule: [Nva20]JzTx-V(1-29) (peptide)
- IC50 (IonWorks Quattro) [1]: 3.1 µM
- Nav1.4/Nav1.7 (ratio of IC50s) [1]: 19
- IC50 (IonWorks Quattro) [2]: 10.4 µM
- IC50 (IonWorks Quattro) [8]: > 5 µM
- IC50 (IonWorks Quattro) [3]: 0.17 µM

Molecule: [Phe6,Atz(2 kDa EtO-PEG*-{[Phe6,Atz13*]GpTx-1(1-34)})13]GpTx-1(1-34) (peptide)
- Nav1.7 WCPC IC50 [3]: 580 pM

Molecule: YCQKWMWTCDSKRACCEGLRCKLWCRKII [JzTx-V(1-29)]
- IC50 [13]: 630 nM and 430 nM
